Measured values reported in patent US20230357838, “Double-Stranded DNA Deaminases and Uses Thereof” (New England Biolabs, Inc., published 2023).

Experiments:
Assay in all cases: cell-based or functional assay
[1] = target: T1, LbsDa01 (Simiaoa sunii)
T1 chain: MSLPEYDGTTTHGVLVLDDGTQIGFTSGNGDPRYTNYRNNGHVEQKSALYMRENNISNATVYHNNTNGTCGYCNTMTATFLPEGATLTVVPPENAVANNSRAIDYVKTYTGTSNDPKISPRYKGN

[2] = target: T2, RaDa01 (Ruminococcus sp.)
T2 chain: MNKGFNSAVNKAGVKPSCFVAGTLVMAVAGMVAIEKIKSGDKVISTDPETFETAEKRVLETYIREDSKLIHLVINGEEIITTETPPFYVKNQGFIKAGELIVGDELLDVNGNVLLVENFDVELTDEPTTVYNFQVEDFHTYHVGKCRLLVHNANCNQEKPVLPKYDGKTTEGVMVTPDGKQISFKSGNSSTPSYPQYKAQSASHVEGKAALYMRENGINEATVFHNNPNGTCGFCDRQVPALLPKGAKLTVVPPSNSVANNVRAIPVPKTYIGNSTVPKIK

[3] = target: T3, d38_MGYPDa829 (unidentified)
T3 chain: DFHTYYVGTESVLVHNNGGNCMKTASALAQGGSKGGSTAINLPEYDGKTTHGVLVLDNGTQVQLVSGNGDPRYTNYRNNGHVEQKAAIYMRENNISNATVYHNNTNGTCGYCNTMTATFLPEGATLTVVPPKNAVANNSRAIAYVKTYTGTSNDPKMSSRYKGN

[4] = target: T4, MGYPDa23 (unidentified)
T4 chain: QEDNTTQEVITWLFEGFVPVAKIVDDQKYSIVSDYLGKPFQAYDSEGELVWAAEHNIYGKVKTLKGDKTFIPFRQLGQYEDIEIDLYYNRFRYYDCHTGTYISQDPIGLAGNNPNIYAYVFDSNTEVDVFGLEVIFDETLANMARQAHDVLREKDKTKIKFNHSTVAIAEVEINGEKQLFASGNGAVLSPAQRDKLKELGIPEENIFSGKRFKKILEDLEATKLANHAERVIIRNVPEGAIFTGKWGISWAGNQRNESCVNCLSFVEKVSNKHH

[5] = target: T5, CrDa01 (Clostridium roseum)
T5 chain: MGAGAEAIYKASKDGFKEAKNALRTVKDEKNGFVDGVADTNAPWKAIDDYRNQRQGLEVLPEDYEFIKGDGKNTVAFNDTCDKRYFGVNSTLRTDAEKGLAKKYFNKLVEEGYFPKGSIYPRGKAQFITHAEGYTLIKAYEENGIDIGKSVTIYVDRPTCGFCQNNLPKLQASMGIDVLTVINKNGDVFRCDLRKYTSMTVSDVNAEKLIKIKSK

[6] = target: T6, MGYPDa20 (unidentified)
T6 chain: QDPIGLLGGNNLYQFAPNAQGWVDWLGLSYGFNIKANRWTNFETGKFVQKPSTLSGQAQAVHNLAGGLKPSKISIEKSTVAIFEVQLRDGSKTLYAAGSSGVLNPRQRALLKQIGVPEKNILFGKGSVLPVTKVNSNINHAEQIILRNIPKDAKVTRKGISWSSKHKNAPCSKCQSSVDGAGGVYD

[7] = target: MGYPDa01 (unidentified)
Chain of MGYPDa01 (unidentified) (chain, as listed by the source): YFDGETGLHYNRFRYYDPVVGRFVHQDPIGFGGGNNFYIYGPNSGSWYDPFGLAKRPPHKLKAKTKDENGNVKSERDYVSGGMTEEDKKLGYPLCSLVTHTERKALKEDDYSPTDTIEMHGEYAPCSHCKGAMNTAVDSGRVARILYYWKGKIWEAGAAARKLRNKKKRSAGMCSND

[8] = target: T7, AvDa02 (Actinomyces viscosus)
T7 chain: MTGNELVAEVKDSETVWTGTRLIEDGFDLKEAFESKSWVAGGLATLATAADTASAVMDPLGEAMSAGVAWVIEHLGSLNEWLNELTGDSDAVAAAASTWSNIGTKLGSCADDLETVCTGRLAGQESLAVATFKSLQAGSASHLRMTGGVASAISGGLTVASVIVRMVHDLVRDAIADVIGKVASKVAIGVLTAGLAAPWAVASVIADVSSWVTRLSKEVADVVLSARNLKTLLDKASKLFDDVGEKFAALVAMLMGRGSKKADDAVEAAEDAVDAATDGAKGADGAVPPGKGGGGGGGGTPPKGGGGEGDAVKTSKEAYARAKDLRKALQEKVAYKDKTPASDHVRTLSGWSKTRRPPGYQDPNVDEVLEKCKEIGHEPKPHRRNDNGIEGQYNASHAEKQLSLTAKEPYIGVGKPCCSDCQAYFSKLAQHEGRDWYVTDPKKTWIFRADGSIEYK

B1: 40 bp 5caC oligo (dsDNA)
DNA 1: AAATTTAATTATAAAACGATCGACGACGAAATAATAAAAA
DNA 2: TTTTTATTATTTCGTCGTCGATCGTTTTATAATTAAATTT
modifications: 5caC at all four C of the listed strand sites
B1 gave an activity [1] of 0.1 fraction deaminated, an activity [2] of 0.47 fraction deaminated and an activity [3] of 0.1 fraction deaminated. For the same binder, the activity [4] was 0.02 fraction deaminated.

B2: 40 bp control C oligo (dsDNA)
DNA 1: AAATTTAATTATAAAACGATCGACGACGAAATAATAAAAA
DNA 2: TTTTTATTATTTCGTCGTCGATCGTTTTATAATTAAATTT
B2 gave an activity [1] of 0.92 fraction deaminated, an activity [5] of 0.98 fraction deaminated and an activity [2] of 0.98 fraction deaminated. The activity [6] was 0.59 fraction deaminated, the activity [7] was 0.12 fraction deaminated and the activity [3] was 0.88 fraction deaminated. For the same binder, the activity [4] was 0.97 fraction deaminated.

B3: 40 bp 5fC oligo (dsDNA)
DNA 1: AAATTTAATTATAAAACGATCGACGACGAAATAATAAAAA
DNA 2: TTTTTATTATTTCGTCGTCGATCGTTTTATAATTAAATTT
modifications: 5fC at all four C of the listed strand sites
Binder B3 has an activity [1] of 0.14 fraction deaminated, an activity [5] of 0.09 fraction deaminated and an activity [2] of 0.66 fraction deaminated. The activity [8] was 0.08 fraction deaminated, the activity [3] was 0.12 fraction deaminated and the activity [4] was 0.23 fraction deaminated.
